# From patent publication US20250152742A1, “COMPOSITIONS AND METHODS FOR NEUROLOGICAL DISEASES” (Trames Bio, Inc., priority 2022, published 2025)
# B1: CODA71: parental chimeric LGIC: human α7-nAChR ligand binding domain with GlyRα1 Cys-loop fused to human GlyRα1 ion pore domain (protein)
# chain: MRCSPGGVWLALAASLLHVSLQGEFQRKLYKELVKNYNPLERPVANDSQPLTVYFSLSLLQIMDVDEKNQVLTTNIWLQMSWTDHYLQWNVSEYPGVKTVRFPDGQIWKPDILLYNSADERFDATFHTNVLVNSSGHCQYLPPGIFKSSCPMDLKNFPMDVQTCKLKFGSWSYGGWSLDLQMQEADISGYIPNGEWDLVGIPGKRSERFYECCKEPYPDVTFTVTMRRRMGYYLIQMYIPSLLIVILSWISFWINMDAAPARVGLGITTVLTMTTQSSGSRASLPKVSYVKAIDIWMAVCLLFVFSALLEYAAVNFVSRQHKELLRFRRKRRHHKSPMLNLFQEDEAGEGRFNFSAYGMGPACLQAKDGISVKGANNSNTTNPPPAPSKSPEEMRKLFIQRAKKIDKISRIGFPMAFLIFNMFYWIIYKIVRREDVHNQ
# modifications: synthetic sequence of chimeric LGIC
# Test system: engineered chimeric receptor SEQ ID NO: 33 and its mutants (human α7-nAChR ligand binding domain / human GlyRα1 ion pore domain) in Lenti-X 293T cells
# Assay: YFP fluorescence quenching anion reporter plate reader assay (percent quench, EC50)
# Type: cell-based
# Conditions: for YFP fluorescence quenching using CNL001 (percent quench): receptor named in row; for YFP fluorescence quenching using Varenicline, 3 nM var: ligand Varenicline 3 nM; for YFP fluorescence quenching using Varenicline, 30 nM var: ligand Varenicline 30 nM; for YFP fluorescence quenching using Varenicline, 300 nM var: ligand Varenicline 300 nM; for YFP fluorescence quenching using Varenicline, 500 nM var: ligand Varenicline 500 nM; for YFP fluorescence quenching using Varenicline, 1 uM var: ligand Varenicline 1 uM
# Outline: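 Lenti-X 293T cells co-expressing an anion-quenchable YFP were transiently transfected with receptor DNA, then ligand was added in NaI-substituted buffer (pH 7.2) after 30 min at 37 °C. Fluorescence was read about 2 min; percent quench = mean of last 10 s over 15 s pre-ligand baseline.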
molecule,measurement,setting,value
B1,YFP fluorescence quenching using CNL001 (percent quench),"1 nM CNL001, first column so headed",3.727%
same,YFP fluorescence quenching using CNL001 (percent quench),"1 nM CNL001, second column so headed",20.231%
same,YFP fluorescence quenching using TC-5619/Bradanicline (percent quench),1 nM brd (TC-5619/Bradanicline),9.41%
same,YFP fluorescence quenching using TC-5619/Bradanicline (percent quench),3 nM brd (TC-5619/Bradanicline),44.38%
same,YFP fluorescence quenching using CNL001 (percent quench),"10 nM CNL001, first column so headed",81.096%
same,YFP fluorescence quenching using CNL001 (percent quench),"10 nM CNL001, second column so headed",82.368%
same,YFP fluorescence quenching using TC-5619/Bradanicline (percent quench),10 nM brd (TC-5619/Bradanicline),76.61%
same,YFP fluorescence quenching using TC-6683 (percent quench),30 nM TC-6683,−14.43%
same,YFP fluorescence quenching using TC-5619/Bradanicline (percent quench),30 nM brd (TC-5619/Bradanicline),70.23%
same,YFP fluorescence quenching using CNL001 (percent quench),"50 nM CNL001, first column so headed",83.62%
same,YFP fluorescence quenching using CNL001 (percent quench),"50 nM CNL001, second column so headed",84.482%
same,YFP fluorescence quenching using ABT-126 (percent quench),50 nM abt (ABT-126),−1.98%
same,YFP fluorescence quenching using CNL001 (percent quench),"100 nM CNL001, first column so headed",84.297%
same,YFP fluorescence quenching using CNL001 (percent quench),"100 nM CNL001, second column so headed",85.368%
same,YFP fluorescence quenching (percent quench),100 nM CNL002,49.61%
same,YFP fluorescence quenching using ABT-126 (percent quench),100 nM abt (ABT-126),24.27%
same,YFP fluorescence quenching using AZD-0328 (percent quench),100 nM azd0328,73.59%
same,YFP fluorescence quenching using TC-5619/Bradanicline (percent quench),100 nM brd (TC-5619/Bradanicline),78.62%
same,YFP fluorescence quenching using TC-6683 (percent quench),300 nM TC-6683,−13.08%
same,YFP fluorescence quenching using ABT-126 (percent quench),300 nM abt (ABT-126),56.8%
same,YFP fluorescence quenching using AZD-0328 (percent quench),300 nM azd0328,78.09%
same,YFP fluorescence quenching using TC-5619/Bradanicline (percent quench),300 nM brd (TC-5619/Bradanicline),75.51%
same,YFP fluorescence quenching using ABT-126 (percent quench),500 nM abt (ABT-126),76.28%
same,YFP fluorescence quenching using CNL001 (percent quench),"1 uM CNL001, first column so headed",85.647%
same,YFP fluorescence quenching using CNL001 (percent quench),"1 uM CNL001, second column so headed",86.358%
same,YFP fluorescence quenching (percent quench),1 uM CNL002,74.15%
same,YFP fluorescence quenching using ABT-126 (percent quench),1 uM abt (ABT-126),73.16%
same,YFP fluorescence quenching using TC-6683 (percent quench),3 uM TC-6683,−13.71%
same,YFP fluorescence quenching using ABT-126 (percent quench),3 uM abt (ABT-126),70.98%
same,YFP fluorescence quenching using ABT-126 (percent quench),10 uM abt (ABT-126),72.62%
same,YFP fluorescence quenching (percent quench),10 uM ach (acetylcholine),15.61%
same,YFP fluorescence quenching (percent quench),30 uM CNL002,75.21%
same,YFP fluorescence quenching using TC-6683 (percent quench),30 uM TC-6683,−14.02%
same,YFP fluorescence quenching using ABT-126 (percent quench),30 uM abt (ABT-126),77.49%
same,YFP fluorescence quenching (percent quench),30 uM ach (acetylcholine),63.31%
same,YFP fluorescence quenching using AZD-0328 (percent quench),30 uM azd0328,79.05%
same,YFP fluorescence quenching using ABT-126 (percent quench),50 uM abt (ABT-126),77.96%
same,YFP fluorescence quenching (percent quench),50 uM ach (acetylcholine),73.16%
same,YFP fluorescence quenching using TC-6683 (percent quench),100 uM TC-6683,−8.77%
same,YFP fluorescence quenching using ABT-126 (percent quench),100 uM abt (ABT-126),77.81%
same,YFP fluorescence quenching (percent quench),100 uM ach (acetylcholine),74.94%
same,YFP fluorescence quenching (percent quench),300 uM ach (acetylcholine),65.94%
same,YFP fluorescence quenching (percent quench),500 uM ach (acetylcholine),62.78%
same,YFP fluorescence quenching (percent quench),1 mM ach (acetylcholine),74.24%
same,YFP fluorescence quenching (percent quench),3 mM ach (acetylcholine),76.27%
same,YFP fluorescence quenching (percent quench),5 mM ach (acetylcholine),77.15%
same,YFP fluorescence quenching (percent quench),10 mM ach (acetylcholine),77.96%
same,"YFP fluorescence quenching using Facinicline, 30 nM fac",ligand Facinicline 30 nM,53.42
same,"YFP fluorescence quenching using Facinicline, 100 nM fac",ligand Facinicline 100 nM,83.6
same,"YFP fluorescence quenching using Facinicline, 300 nM fac",ligand Facinicline 300 nM,77.44
same,"YFP fluorescence quenching using Facinicline, 30 uM fac",ligand Facinicline 30 uM,79.62
same,"YFP fluorescence quenching using TC-6987, 1 uM tc6987",ligand TC-6987 1 uM,31.56
same,"YFP fluorescence quenching using TC-6987, 3 uM tc6987",ligand TC-6987 3 uM,31.82
same,"YFP fluorescence quenching using TC-6987, 5 uM tc6987",ligand TC-6987 5 uM,30.75
same,"YFP fluorescence quenching using TC-6987, 10 uM tc6987",ligand TC-6987 10 uM,56.68
same,"YFP fluorescence quenching using TC-6987, 30 uM tc6987",ligand TC-6987 30 uM,51.46
same,"YFP fluorescence quenching using TC-6987, 50 uM tc6987",ligand TC-6987 50 uM,61.26
same,"YFP fluorescence quenching using TC-6987, 100 uM tc6987",ligand TC-6987 100 uM,43.21
same,"YFP fluorescence quenching using TC-6987, 300 uM tc6987",ligand TC-6987 300 uM,7.79
same,"YFP fluorescence quenching using TC-6987, 500 uM tc6987",ligand TC-6987 500 uM,51.58
same,"YFP fluorescence quenching using Varenicline, 3 nM var",first column,−2.36
same,"YFP fluorescence quenching using Varenicline, 3 nM var",second column,−3.522
same,"YFP fluorescence quenching using Varenicline, 30 nM var",first column,−4.255
same,"YFP fluorescence quenching using Varenicline, 30 nM var",second column,−3.636
same,"YFP fluorescence quenching using Varenicline, 300 nM var",first column,46.195
same,"YFP fluorescence quenching using Varenicline, 300 nM var",second column,45.522
same,"YFP fluorescence quenching using Varenicline, 500 nM var",first column,69.253
same,"YFP fluorescence quenching using Varenicline, 500 nM var",second column,71.705
same,"YFP fluorescence quenching using Varenicline, 1 uM var",first column,79.254
same,"YFP fluorescence quenching using Varenicline, 1 uM var",second column,79.244
